Test: label from the status in PepcDB records
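Further: failed if final PepcDB status was selected cloned or expressed and not failed if soluble or beyond.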

Sequence	protein production
MVVKFTKSEALHKEALEHIVGGVNSPSRSFKAVGGGAPIAMERGKGAYFWDVDGNKYIDYLAAYGPIITGHAHPHITKAITTAAENGVLYGTPTALEVKFAKMLKEAMPALDKVRFVNSGTEAVMTTIRVARAYTGRTKIMKFAGCYHGHSDLVLVAAGSGPSTLGTPDSAGVPQSIAQEVITVPFNNVETLKEALDKWGHEVAAILVEPIVGNFGIVEPKPGFLEKVNELVHEAGALVIYDEVITAFRFMYGGAQDLLGVTPDLTALGKVIGGGLPIGAYGGKKEIMEQVAPLGPAYQAGTMAGNPASMASGIACLEVLQQEGLYEKLDELGAMLEKGILEQAAKHNIDITLNRLKGALTVYFTTNTIEDYDAAQDTDGEMFGKFFKLMLQEGVNLAPSKYEAWFLTTEHTKEDIEYTIEAVGRAFAALADNK	not failed
DSFKNLENKYDGKIGIYTLNTDDKTNIKYNESYHFPICSVFKFLLVGAILDYDMHNQGFLDKKIPINQDDIGKLGYAPITAKNVGKTLTISQLNYAAILSDSPASNILVRELGGLQNLNKFIKKLGDNDTIITADEPEINYTQPHSNINKTTPKAITKDIYKLAFGNILDKKHKDIFIKYLQDNNTGANRIAFSMPKDWIIGDKTGTCGQYAATNDVAIIWPKNQQPIALGILYTNPNDKNAPSNEEIIQQAAKLIANDLTNTYK	not failed
SPAYQEDREEDTCTIGEREKTIATQRIKGFGVENPVLPESPPASMSSVMKNNPLYGDITLEEAMEERKKSPSWTIEEYDKHSVHTNLSGHLKENPNDLRFWLGDTYTPGFDTLLKKKKKRNKRSKLCHMGLILLLVASILVTIVTLSTIFS	failed
PNILYKIDNQYPYFTKNEKKIAQFILNYPHKVVNMTSQEIANQLETSSTSIIRLSKKVTPGGFNELKTRLSKFLPKEVTQYNVELVDNESTISLKNKLHSRSKAAL	not failed
SEAEGNQVYFAVYTFKARNPNELSVSANQKLKILEFKDVTGNTEWWLAEVNGKKGYVPSNYIRKTE	not failed
MNAIISPDYYYVLTVAGQSNAMAYGEGLPLPDREDAPHPRIKQLARFAHTHPGGPSCHFNDIIPLTHCPHDVQDMQSYHHPLATNHQTQYGTVGQALHIARKLLPFIPDNAGILIVPCCRGGSAFTAGSEGTYSERHGASHDACRWGTDTPLYQDLVSRTRAALVKNPQNKFLGVCWMQGEFDLMTSDYASHPQHFNHMVEAFRRDLKQYHSQLNNITDAPWFCGDTTWYWKENFPHAYEAIYGNYQNNILANIIFVDFQQQGARGLTNAPDEDPDDLSTGYYGSAYRSPENWTTAXRSSHFSSAARRGIISDRFVEAILQFWRER	not failed
MNNPITAVWEITMGCNMRCKHCGSSCENALEGELTTEEALKLCDELGELGFKWITLSGGEPTTRKDWHLIAKRLNENGIIPNMITNGWLMNEEIADKAVEAGINTVAISVDGLEETHDFIRKKGSFQRIMRAFDILRTRNIFYSAITTINNINIKELPRLRDILIEKGVRGWQLQLGLPMGNMAKNNELVAQPYHIDEVIEFSYKTVKEGYNIDVQLADCIGYFNLKEIEVRKNSYGGGRDGYNWTGCGAGKYSLGILHNGDILGCTSVRDRSFIEGNIRQTPIKEIWMNPDSFSWNRKMTKDKLSGLCKKCYFGERCLGGCSNTRLTMEGSVYSENRYCSYNVAISTAREQLDRIEDVDVMLSKAKKFADNGNFQLAEILLSRAIEKGCRDIGVFEFYGYISFMLGNYLDAKKANEEALKINPDSAYANKGMGLSLGRLGELEKGIEYLRKAIALSDENFTDPYYDLAVLLYENGRKEEALEVLEEGRKKYKSFIDTSKDLYDILTNAS	failed
MFALIILISAIIFGIISYFTGKHAKEVSAVLSGILLLEIIAYSIMRFSSYSGGFISRYSVVISSSLGLSFSIAVSGLTDALLILSAVVILIAVLITDRNYGSAFFGLEMTVLAGLIGLLISRDFLFFYIFWEVVLIPVYFMIGRYGIGNKNSISLKFFVYTHIGSVFILLSIFTLYSQSYVYLASPTFEIGPLMSILPKLSLFYKGFVIFGFLFGFLVKMPSFPIHSWLPDSYYSAPYPGSVILAGAISMMGGYGLFGIMIESYKALDVYVLYLLIALGIISLIYFALTAMFQRNIKKMMAFASASAMGFVTISFAASILETSGIDYSVRALEAAGGMFQIVAHGLIMSLVFSALYYISRNTKTDSVYGLGGIYREAPKLASLTLVGLLASLGLPGFAGFIGEFSIVVGVFQTVSWYIFLIIFGMIITASYHIWTAQRSLYGPYNENLGFIRDINSGEFMILIFLVLVIFVLGIYPNLIFANLVNYTNTSLSISVEPALRTNVVAFLEAHVFEVMQ	failed
MKRKKLSIFILSAAIVTSSVSYGMTAKADEVKETKGYNYNVNLSEQKAVANNKISVKKVNGEILGYANPFTMLQILNMNGKTVEVITQSGLRGYVDANEFTLVESAVNDKLIEKNIEGHVTNVSTVLNLRKEPRIGAEIINRLLNNTKVNILGKQGSWYKIELNGQKGYVYGMFLNEGTMKENSSKTIANKKSEVKSKDKKEKKSSVKKEAKKEVVSGVKAKVVQKQREEAKANMTSEAKPAINKDAKSNNKVEVKSEVKKEAKNEVKTEMNSSTKVETSQVVTSEMVQAVNTEVKSEKNQEANLQVRPEIKSEEKTEMISKENLNVIPEAKKEGISEEIKPEVNTEVESKPEMNKEVKAEEGKTAPEVKLEEKQEVKPVEASEEKVEVKKEEVQDPKAKEMDELLKSEEYKFLRMSISYGERLVDRNDVYTKDSLKILRTELEKAKKVFQDKDNLTMKLVQDTRDDLERAIVDLVKISDVKKPVKSKAKVEVKKESNTEKKQEVKEQPAKAEVIVPEVKENKEIKKEEPVKAKEVVKEKKSREEEIEEILKSEEYRFLLKDIAYGERLSEKITVYTRDSLKVLNAAIEKAGRIVRQKEKLTVKLVQDTRDDVDRAIVDLVKKNN	failed
MNAIILAAGFGSRLMPLTKDQPKCMVEYKNKKIIDYEIEALKSAGINEIAVVGGYLNDVLKNYLNKYDIEHFFINSKYDKTNMVHTFFCAKDFMLKCIEEKQDLIISYADIVYFQDCVQKLINAKEELAIVVDKSWCKLWSKRFANPLEDAETLKMTNGYIIELGKKANAYDEIEAQYIGLFKFSYQFLSEVIAFYEMLDRDILYDNKNFENMYMTSFLQALIEKYNNAKAVEIDGNWCEIDFMSDLEVQIEKLEHHHHHH	failed
LYDQGGPVEILPFLYLGSAYHASRKDMLDALGITALINVSANCPNHFEGHYQYKSIPVEDNHKADISSWFNEAIDFIDSIKNAGGRVFVHCQAGISRSATICLAYLMRTNRVKLDEAFEFVKQRRSIISPNFSFMGQLLQFESQVLAPHCSAEAGSPAMAVLDRGTSTTTVFNFPVSIPVHSTNSALSYLQSPITTSPSC	failed
MASSSSLSLSFPSSSLSRTWDYDVFPSFHGEDVRKAFLSQILKKEFGRKAINFFVDHEMERGEFIGPVLKQAIKGSKIALVLLSKNYASSWCCLDELVEIMKKESGQTVITIFYEVDPNEVKKQTGDFGKAFKETCQGKTEEKVQTWRKALEGVGLATIAGFHSSNWFVFFI	not failed
MSLSYRIDVLLFNKFETLDVFGPVEIFGNLQDDFELNFISSDGGLVESSQKVRVETSLYTRDENIEKILFVPGGSGTREKVNDDNFINFIGNMVKESKYIISVCTGSALLSKAGILNGKRATTNKRSFKWVTEQNEDVLWVKEARWVKDGNIYTSSGVSAGIDMTLGFIEDLIGKEKALEISRSIEYFWNEDSNYDPFSKIYGEGHHHHHH	not failed
CSACGETVMPGSRKLEYGGQTWHEHCFLCSGCEQPLGSRSFVPDKGAHYCVPCYENKFA	not failed
MERIIQQTDYDALSCKLAAISVGYLPSSGLQRLSVDLSKKYTEWHRSYLITLKKFSRRAFGKVDKAMRSSFPVMNYGTYLRTVGIDAAILEFLVANEKVQVVNLGCGSDLRMLPLLQMFPHLAYVDIDYNESVELKNSILRESEILRISLGLSKEDTAKSPFLIDQGRYKLAACDLNDITETTRLLDVCTKREIPTIVISECLLCYMHNNESQLLINTIMSKFSHGLWISYDPIGGSQPNDRFGAIMQSNLKESRNLEMPTLMTYNSKEKYASRWSAAPNVIVNDMWEIFNAQIPESERKRLRSLQFLDELEELKVMQTHYILMKAQW	not failed
MDAIRIVLKNISQVLLLNNAWTGLFILLGLFIGSWKVGVMALIASVIALLLAKRTNYSEEEINTGLSGFNPVLTAIALTLFLVPKWYSLIIILVAIIITMPIGSAFREFFKPFGVPMLTMPYVFVSWLILLMSFQFKFVNADVNILPNAIQEIQFSGHHIQFINAFLSGFSEIFLLKSVLAGTLILIGIFIASRKAGVYAIVANLIGFLAVIVLGANHDQINEGLFGYNVILTVLALGIAFRTRIQRPISIVLGILLTVVIHAGMTTLLTPYGLPVFTLPFIIATWIMLFAGNQMKAQEI	failed
MLEKVEEWIKARGLTWRLLIMQKPTRTVAEAAALLGVSESEIVKTLIVLDNAGGVYAVVIPGDKRLNINSMKELAGKPVRLARANEVVELTGYPVGGVPPVALPPNIVLVVDRILLSRKKVYGGGGRENALLEFSPRELVEATGAVVADVSE	not failed
MFKSNYKGYGSGIISAMAWGLDTVLVGVILSMAPFINTESAIMLAPFVSTFLHDFFSTLWMFIYMIFTRQVGKLFKSLKTPSTKYVILASIFGGPMGMTGYLLSVNYIGPSYAATISSIYPAVGAVLAAIFLKEKISRKGYIGLTISILGIALLGFGNDGGKASLIGFLFAGLSVLGWGSESVICSYGMKDEDISPKQALQIRQFISALFSGVIILPLLKAYPLVFEVLKGNVTFVIIGTALMGTISYVCYYTAIHKLGPTRAMGLNITYVVWAMIFDKVLLGHNITIKMVICALMVMIGSFVVATQPAHEEELTNVTNTAV	failed
MDPAGASVASAIGGEGEKFAVGNIYSVKVITGDEFRGIGTKPRPGHLKNTRMVNASFITGLSYLGKTEDPLDSDNFSVDLNGLRAKEALAIRQAEADAERMGVGVTAEAQSIFDALSKTLPVQWENSDILVMKEVRVRSPYLSDCVFGGTDAANNRVKKVLELERRRLQLFGT	failed
MPVSIFMTVVNKSGVLARVTAEIAKADSNIDDITLENDKDYTTMRFILQTRDRQHLAQIFRRLKHIDEIVKMGRIKNLLEHHHHHH	not failed
MGSMLLNGAKMKYGNLSLKCMVQNQKALNFYLSQGFEIVSQVDDELGGYYYMSFVAQT	failed
MQTTEIDLRLTEVSQQLTMVLVPGLRDSDDEHWQSHWERRFPHWQRIRQREWYQADLDRWVLAIRRELSVCTQPVILIGHSFGALAACHVVQQGQEGIAGVMLVAPAEPMRFEIDDRIQASPLSVPTLTFASHNDPLMSFTRAQYWAQAWDSELVDVGEAGHINAEAGFGPWEYGLKRLAEFSEILIPNR	not failed
DLNLPIYPVKGYSLTLPVTNSDGAPVSTVLDESYKVAITRFDNRIRVGGMAELSGYEIKLPEKRRETLALVVNDLFPEGGDLSQASFWSGLRPMTPDSTPLIGRTRFDN	failed
MSDRRAPLVLEVDGVRHPLTPPGLTIGRGSDADIRINDPGISRLHARINVWPQGNDIGLSIEDLDSTNGVTVNGVKVTSTELGDGSRIEIGSTRMLVHSPTRILEHHHHHH	failed
MAANNSIEWRAVCEKFRLAQELSEIESKKDPENNPFRSKYKARDLLKEIHCSLKKIEIEEQGEAGDEADCESSQTADGEPEDGFEKTFTGDSAAGLRAARLAVLQYHLGVNHIETEELSAGELHLMVCMKLIDKCTTTRENVSLFIHVRNQLGILWAGRDEIEKAQGFLEIAETMYLVYMKEDGQPPLDLQDFFVPEGESQSFTGVLQLRSAVLRGESRSQERCRNRARAEYGDGLPAPSEDQQNSIHSGLLQLKW	failed
KRRIRQLELQVRMLEADKERLERELSRLRSEMSRLRQPPAFAGSVIEVLDDDRAIVQNYNGPRFVVRIAPWIDKSKLRPGTRVALDQRTMAIIEILPASKDPAVLGFEVVERPN	not failed

Source: a protein production outcome set (Wang et al. 2014)
